Earlier results, collected in paper PMC3076547.

Target: Nef (Human immunodeficiency virus 1) (UniProt P04324)

In the case of Hck SH3 (from UniProt P08631), the Kd is listed as 250 nM.
